Key:
[1] = target: PilZ_(W69_5OHW) (Xanthomonas citri pv. citri strain 306); assay: other fluorescence titration
[2] = target: PilB_(12-163) (Xanthomonas citri pv. citri strain 306); assay: SEC-MALS
[3] = target: PilB_(1-190), His tag removed (Xanthomonas citri pv. citri strain 306); assay: SEC-MALS
[4] = target: full-length FimX (Xanthomonas citri pv. citri strain 306); assay: SEC-MALS; full-length proteins and complexes; silica-based WTC column 7.8/300; 50 mM Tris-HCl pH 8.0, 50 mM NaCl, 5 mM MgCl2; without and with ATPγS and/or c-di-GMP (1:2 protein to ligand)

Substance: FimXEAL (domain or fragment)
- Kd [1]: 200 nM

Substance: His-tagged PilB_(1-190) (from UniProt A0AAI7ZH88 1-190) (domain or fragment)
- Kd [1]: < 4.1 nM

Substance: PilZ (XAC1133), wild type, recombinant (from UniProt A0AAI7ZDW4 1-117) (natural protein)
- stoichiometry N [2]: 1
- stoichiometry N [3]: 1

Substance: full-length FimX (natural protein)
- stoichiometry N [4]: 2

Source: paper PMC8389850, “The PilB-PilZ-FimX regulatory complex of the Type IV pilus from Xanthomonas citri” (PLoS Pathogens, 2021)
